According to the DeepSol protein solubility set:

assay: soluble on expression in E. coli; label from the status in PepcDB or PDB records

Sequence	soluble on expression in E. coli
MSLNQWMELADRVLAGAEVTDEEALSILHCPDEDILLLMHGAFHIRKHFYGKKVKLNMIMNAKSGLCPENCGYCSQSAISKAPIESYRMVNKETLLEGAKRAHDLNIGTYCIVASGRGPSNREVDQVVDAVQEIKETYGLKICACLGLLKPEQAKRLKDAGVDRYNHNLNTSQRNHSNITTSHTYDDRVNTVEIAKESGLSPCSGAIIGMKETKQDVIDIAKSLKALDADSIPVNFLHAIDGTPLEGVNELNPLYCLKVLALFRFINPSKEIRISGGREVNLRTLQPLGLYAANSIFVGDYLTTAGQEETEDHKMLSDLGFEVESVEEMKASLSAKSEGHHHHHH	soluble
FTNPGQIVGRIDRDSGMTSTAPAMPDGDWQAYGRTEFGDRYSPLKQITPANVGQLEEAWRIRTGDLPTADDPLELTNENTPLKVNGMLYACTAHSKVLALDPDTGAEIWRFDPQIQSPVGFKGFAHMTCRGVSYYDEEQYARSDVGAPPAALSEAGKAVAASCPRRLFLPTADARLIAINADNGKVCEDFGVKGAVDLTAGIGPFTPGGYYSTSPAAVTRNLVIIGGHVTDNESTNEPSGVIRAFDVHDGKLVWNWDSGNPDETEPLAPGKFYTRNSPNMWSLASVDEKLGQVYLPLGNQMPDQWGGNRTPGAEKFSAGLVALDLNTGKLRWNYQFTHHDLWDMDVGSQPTLLDLKTADGVKPALIAPTKQGSLYVLDRRDGTPIVPIREVPAPQGAVEGDHTAPTQARSDLNLLRPPLTERDMWGSSPFDQMLCRIQFRSLRYEGQYTPPSEQGSLIYPGNVGVFNWGGVSVDPVRQILFTSPNYMAFVSQMVPRDKVPSGSKREGETSGVQPNTGAPYAVIMHPFMSPIGLPCQAPSWGDVAGIDLTTAKVVWQHKNGTSRDNTPVPIGLTVGVPSMGGSITTAGGVAFLSGTLDQYLRAYDVKDGKQLWQARLPAGGQATPMSYTGKDGRQYVLIVAGGHGSFGTRMGDYIIAYALPR	not soluble
MRRMVDHDALHRRWLGALVGARGGAAQPDPAPYGENLLRRWSEPQRRYHTVEHLAAVLDRVDLLAEYADDPDVVRLAAWFHDAVYFPDRSENEERSARLAERALPEAGVSGARTAEVARLVRLTVTHDPADDDRDGRVLCDADLAILAAPPKTYAAYAAAVREEYAFVPDDSFRAGRAAVLRQLLDLPRLFRTPYGEREWEERARENLREELARLDDRGTSGAAQLEHHHHHH	not soluble
MSKLIITDNLEMLTEQGATRRRLLQAGLGACALLAMPAANAAYSRVYEKRVSLLNLHTGERVRTAYWERGKYIPEALRMIEKVLRDHRSGDIHRIDPRLLDLMQHLHHKTGNSKEFQVVSGYRSPATNAALSVQSHGVAKNSLHMQGKAIDIRLPGVPLHVLRRAAMSMHAGGVGYYPKSNFIHIDTGNVRYW	not soluble
MISPNHLILLFCVNCAFLVASDATPKRSPLGTMRFGKRAIADEMTFEEDGYYPSNVMWKRSTVDSSEPVIRDQRTPLGTMRFGKRSAEPFGTMRFGKRNPENDTPFGTMRFGKRASEDALFGTMRFGKREDGNAPFGTMKFGKREAEEPLGTMRFGKRSADDSAPFGTMRFGKRNPLGTMRFGK	not soluble
MNWLDICSLDEINPLGSRVVAGPKGDIAIFRAADDQVFALDDRCPHKGGPLSQGLIYGKRVACPLHNWQIELESGEAVAPDQGCAHRHPVRVENGRVLLGLDSVALCA	not soluble
MSSVYDFNVKNANGDDVSLSDYKGKVLIIVNVASQCGLTNKNYTQLKELLDVYKKDGLEVLAFPCNQFAGQEPSCEIDIQAFVADKFKFEPTLFQKIDVNGDKQSPLFKFLKNEKGGFMFDAIKWNFTKFLVGRDGKIIKRFGPTTDPKDMEKDIKEALGEKL	not soluble
MGSDKIHHHHHHMKILIYGAGVLGSYAAYELKRVGHEVTILARSSRYEELKEKGLVIRHWFQRKTTKNKINVVKELLPEEYYDAVFIVMQSSQTNAILPVITANVKCPLFVFVGNQDKAKDISEKIKSTSKSNPRVLFGFFSIGGRREGGKVISVHTKHPDFDIGDLEGRDDYKIIIEKIFKETSFKLHYHVNMDDFFKTHIVVIMPLAYLAYMSNCDLRKIAWNRKALNAVIDAMIEGHEVLIKLGHKVDPESSERLLRNHRKVAYLGLKVCAMTPLGKLGISDHCKSGWREMEYLDKRLLEWAKKSNLETPNINKLREHLIKYVHKKVI	not soluble
MGSDKIHHHHHHMIIESRIEKGKPVVGMETTVFVHGLPRKEAIELFRRAKEISREKGFQLAVIGILKGKIVAGMSEEELEAMMREGADKVGTREIPIVVAEGKNAATTVSATIFLSRRIGIEVVVTGGTGGVHPGRVDVSQDLTEMSSSRAVLVSSGIKSILDVEATFEMLETLEIPLVGFRTNEFPLFFSRKSGRRVPRIENVEEVLKIYESMKEMELEKTLMVLNPVPEEYEIPHDEIERLLEKIELEVEGKEVTPFLLKKLVEMTNGRTLKANLALLEENVKLAGEIAVKLKRS	not soluble
MSLKSYILLIKCKTDTTIRTKSKKFLIRKGVYAYVGSCGRSCGRRVSRHFNKEKSNYHWHIDYLTKACEPIGVFVMNHVGEKELALLFSKNNAFIEEFGSSDDKDAKSHLFIVNDLQELCSTVCDKSREREGHHHHHH	soluble
MKLERVTVKNFRSHSDTVVEFKEGINLIIGQNGSGKSSLLDAILVGLYWPLRIKDIKKDEFTKVGARDTYIDLIFEKDGTKYRITRRFLKGYSSGEIHAMKRLVGNEWKHVTEPSSKAISAFMEKLIPYNIFLNAIYIRQGQIDAILESDEAREKVVREVLNLDKFETAYKKLSELKKTINNRIKEYRDILARTE	soluble
MGSDKIHHHHHHMIVIEDVYKRYKTDHGPGKWILQGVNLTIPRNVNVGLIGSNGAGKSTLLRIIGGIDHPNKGKVERRCRLSWPMGQGGLEPTLTGRQNAKFVCRLHGHQDDLPERLIFIQDFSGLKDAFDEPVNTYSSGMRSRLQFAMSLAFDFDIYISDEVTAAGDAAFRDKAAAAFKGMTNRAGLIMVAHSESTLRQFCEAGILLYQGKAQWFDKIEEAFKAYKDTVQK	not soluble
MAHHHHHHSLRMTQAKTYKVSRDETQHGKDSEHHLIAGYNSSMRLWHNEEPSDTADKTPRSHEYETLGYVISGQVELTVDGQTLTLSAGDSYRVPKGAEHVFRVTETLTAVEVTTPATNKEG	soluble
MAQKTFTVTADSGIHARPATTLVQAASKFDSDINLEFNGKTVNLKSIMGVMSLGIQKGATITISAEGSDEADALAALEDTMSKEGLGE	soluble
MGSDKIHHHHHHMRKLGWKELDIILVTGDAYVDHPSFGVAFIGHYLVSHGFKVGIIAQPDWRTEKDITRLGRPRLFFGVTAGNVDSMVANYTASKKKRKTDDYTPGGIGGKRPDRATIVYTNLIKRFFPEVPVVLGGLEASLRRFAHYDWWSDRVRKSVLVDSKADLLVYGMGEKAVLGIAQILSRTGDIEKCKSIRGVVWWASQKPEEGIELPSYDEISENPEKYAEALKLQTWYTDPYKNIPIYQRQDTRYVVQNPPQPPLSQEELDRLYLLPFEREVHPFYAKMGKVKAIETVKFSITAVRGCFGNCSFCALTQHQTTHVSYRSKDSILEEVRILTKKKDFKGTITDVGGPTANLYGSGCSIRETKGQCQKFCLYPIVCKVVRPNHDEFISLLESIRQIPGVRNVFVSSGIRHDFVFAEKDPDVFIRELVKYTPGQLKLAPEHAHPKVLSLMRKPPVELFLEFKKRFETLAKKMGKRKYVIGYFIVGHPGEGWRENNYLRDFILKHLGYFPQQIQIFTPTPGTVSTAMYYSGVDPFTGEKVHVERSLKVRNKMKENVLFKKKGREKR	not soluble
GSMSAKDERAREILRGFKLNWMNLRDAETGKILWQGTEDLSVPGVEHEARVPKKILKCKAVSRELNFSSTEQMEKFRLEQKVYFKGQCLEEWFFEFGFVIPNSTNTWQSLIEAAPESQMMPASVLTGNVIIETKFFDDDLLVSTSRVRLFYV	soluble
MCRYARSYLLHAFDYTLFVKARLNMAFMISMPAIELAGLTIQVCQFDPQQFDEDQQHYLAPPTYHSLHKAVVKRQAEFVAGRKLAQQALKQIGQGYDRPIAIGTHREPLWPAGITGSIAHCDGWAVCTVLKAEHLSLGIDIEHRLAHQTASEVQAIIGTAQEWALLAQQFDLASAVTLLFSAKESLFKALFPQVHLYLDFCDAQLSSLEPNKMSFTLTRVPNAAQQSCEVYFRWFEQQRVLTVSVLPMLGKIEYHVPTLPT	not soluble
GSHMTRTRMENELIVSKNMQNIIIAGNGPSLKNINYKRLPREYDVFRCNQFYFEDKYYLGKKIKAVFFNPGVFLQQYHTAKQLILKNEYEIKNIFCSTFNLPFIESNDFLHQFYNFFPDAKLGYEVIENLKEFYAYIKYNEIYFNKRITSGVYMCAIAIALGYKTIYLCGIDFYEGDVIYPFEAMSTNIKTIFPGIKDFKPSNCHSKEYDIEALKLLKSIYKVNIYALCDDSILANHFPLSININNNFTLENKHNNSINDILLTDNTPGVSFYKNQLKADNKIMLNFY	soluble
GREQMASFESAYVALSRMKQHVQVYTDNREGWIKAIKNSPEKATAHDILEPRNDRAVKTADLLFGRARPLDETAAGRAALQQSGLAQGSSPGKFISPGKKYPQPHVALPAFDKNGKAAGIWLSPLTDRDGRLEAIGGEGRIMGNEDARFVALQNSRNGESLLAGNMGEGVRMARDNPDTGVVVRLAGDDRPWNPGAMTGGRVWAEPAPVAPVPQAGADIILPPEVLAQRAAEEQQRREMEKKAEQTAREMAGEARKAG	not soluble
SRVDKFSKSDIIVSPSILSANFSKLGEQVKAIEQAGCDWIHVDVMDGRFVPNITIGPLVVDSLRPITDLPLDVHLMIVEPDQRVPDFIKAGADIVSVHCEQSSTIHLHRTINQIKSLGAKAGVVLNPGTPLTAIEYVLDAVDLVLIMSVNPGFGGQSFIESQVKKISDLRKICAERGLNPWIEVDGGVGPKNAYKVIEAGANALVAGSAVFGAPDYAEAIKGIKTSKRPE	soluble
MGSDKIHHHHHHMNQSLRPDKAALVELFRDFIEPQYVINDEETQKPFECDGLSVYCDMPLITVLPKTVEQVCEVMRICYRYQIPVVARGAGTGLCAGAMPNPDGVLLVLSRFKHILDIDPLARSARLQPGVRNLAISEAASPYGLYYGPDPSSQIACSIGGNVAENSGGVHCLKYGLTTHNLLKIEMVTVEGELITIGSEGLDSNGFDLMALITGSEGLLGVITEVTVKLLPSPEKAQVIMAGFDNVQTAGDAVGGVIAKGIIPAGLEMMDSPAIIAAEAFAHAGYPTDAQALLLCELDGSEAEVQEQIAEVEQLFIELGATTTRVSQSEAERALLWKGRKSAFPAVGRISPDYYCMDGTIPRSQLAHVLTEMQKLSEQYGLRVANVFHAGDGNLHPLILFDANVPGELERTEEFGSRILELCVKVGGCITGEHGVGVEKIRQMTIQFNDQELTQFHAIKHAFDPIGTLNPGKGIPVLKRCQEYRTLDRPQHKHDSQPQQGDLA	not soluble
MGSDKIHHHHHHMRIHVLCDDSSQNGFESEHGFSVLVDSVLFDTGKSDVFLKNARKLGIDLPKDVLISHGHYDHAGGLLYLSGKRVWLRKEALDQKYSGERYAGADWNEVLYYNTGKFVIERITEIGKNMFLLGPANLRGKVPTGDFFVERNGERRKDLFEDEQTLVVRTKEGLVVITGCSHRGIDNILLDIAETFNERIKMVVGGFHLLKSSDDEIEKIVKAFNELGVETVVPCHCTGERAVDIFKREFLGKIMDCYAGLKLEVSD	soluble
MRRCPLCHSTQTHLLLQDKKRCFYICQTCWLTFADANSHLPPAAEKQRYGRSRIASKQRHLSQFILPLLTQIQQQQNGSLTGLNFGRVLDQTSLETIESAGHTFKQYDPFFAPDHETLKQEYDFICCYRVFEHFQYPIKEWSLLTRLLKPGGWLAISTPLLIDLEGFAKWHYKNNLTHVSFYQRQTFEYLASNSDFELLFAAKDLVLMQKTSLEHHHHHH	soluble
